Laboratory results as given in patent US7674958B2 (Athenix Corporation, priority 2005, dated 2010).

Tests used:
Format in all cases: cell-based
[1] = test system: E. coli strain DH5α with pUC18-Grg23 (pAX1927); experiment: Growth on glyphosate plates, grg23-expressing cells; settings: concentration to which resistance is conferred
Description: Isopropyl-B-D-thiogalactopyranoside (IPTG; 0.1 mM) was also added to the plates. As a control, cells containing pUC18 vector alone were transformed and streaked onto glyphosate plates.

[2] = test system: E. coli cells containing pAX1967 (GRG51); experiment: Glyphosate screen on M63+ plates, GRG51-expressing cells; settings: 2 days, 37° C.
Description: Cells containing pAX1967 were plated onto M63+ plates containing antibiotic and either 0 mM or 20 mM glyphosate. Growth was scored after two days growth at 37° C.

[3] = test system: BL21*DE3 E. coli cells; experiment: Selection of mutant GRG23 enzymes conferring glyphosate resistance in E. coli on 150 mM glyphosate plates; settings: clones selected on 150 mM glyphosate; extract activity equal to or superior to GRG23
Description: The mutagenized syngrg23 libraries were transformed into E. coli strain BL21*DE3 star (Invitrogen). Following transformation, individual colonies were plated on 1× M63 medium containing 150 mM glyphosate to select for clones that had retained enzymatic activity and growth tolerance.
The plates were incubated for 36 hours at 37° C.
Library plates of extracts of mutagenized syngrg23 clones were assayed for improved enzymatic activity as follows: Library clones were pinned into 96-well blocks containing LB medium and were grown to an O.D. of about 0.6. IPTG was then added (0.5 mM) and the blocks were incubated overnight at 20° C. to induce protein expression. Protein extracts were prepared from the cell pellets using POP culture reagent (Novagen), and the enzymatic activity in the crude lysates was measured. […] The DNA sequences of the clones corresponding to these extracts were determined.

Molecule | glyphosate resistance [1] | resistance to glyphosate [2] [mM] | Glyphosate resistance of GRG23 variants [3]
O=C(O)CNCP(=O)(O)O [glyphosate, N-phosphonomethylglycine] | at least 100 mM | 20 | 
GRG23(L3P1.B20): GRG23 variant (SEQ ID NO:27), V206→I (protein, grg23(L3P1.B20)) METDRLVIPGSKSITNRALLLAAAAKGTSVLVRPLVSADTSAFKTAIQALGANVSADGDNWVVEGLGQAPHLDADIWCEDAGTVARFLPPFVAAGQGKFTVDGSEQLRRRPLRPLVDGIRHLGARVSSEQLPLTIEASGLAGGEYEIEAHQSSQFASGLIMAAPYARQGLRVRIPNPVSQPYLTMTLRMMRDFGLETSTDGATVSIPPGRYTARRYEIEPDASTASYFAAASAVSGRSFEFQGLGTDSIQGDTSFFNVLGRLGAEVHWAPNSVTISGPERLNGDIEVDMGEISDTFMTLAAIAPLADGPITITNIGHARLKESDRISAMETNLRTLGVQTDVGHDWMRIYPSTPHGGRVNCHRDHRIAMAFSILGLRVDGITLDDPQCVGKTFPGFFDYLGRLFPEKALTLPG |  |  | retained glyphosate resistance
GRG23(L3P1.B3): GRG23 variant (SEQ ID NO:29), D75→H, E217→K (protein, grg23(L3P1.B3)) METDRLVIPGSKSITNRALLLAAAAKGTSVLVRPLVSADTSAFKTAIQALGANVSADGDNWVVEGLGQAPHLDAHIWCEDAGTVARFLPPFVAAGQGKFTVDGSEQLRRRPLRPLVDGIRHLGARVSSEQLPLTIEASGLAGGEYEIEAHQSSQFASGLIMAAPYARQGLRVRIPNPVSQPYLTMTLRMMRDFGLETSTDGATVSVPPGRYTARRYKIEPDASTASYFAAASAVSGRSFEFQGLGTDSIQGDTSFFNVLGRLGAEVHWAPNSVTISGPERLNGDIEVDMGEISDTFMTLAAIAPLADGPITITNIGHARLKESDRISAMETNLRTLGVQTDVGHDWMRIYPSTPHGGRVNCHRDHRIAMAFSILGLRVDGITLDDPQCVGKTFPGFFDYLGRLFPEKALTLPG |  |  | retained glyphosate resistance
GRG23(L3P1.F18): GRG23 variant (SEQ ID NO:31), T274→I (protein, grg23(L3P1.F18)) METDRLVIPGSKSITNRALLLAAAAKGTSVLVRPLVSADTSAFKTAIQALGANVSADGDNWVVEGLGQAPHLDADIWCEDAGTVARFLPPFVAAGQGKFTVDGSEQLRRRPLRPLVDGIRHLGARVSSEQLPLTIEASGLAGGEYEIEAHQSSQFASGLIMAAPYARQGLRVRIPNPVSQPYLTMTLRMMRDFGLETSTDGATVSVPPGRYTARRYEIEPDASTASYFAAASAVSGRSFEFQGLGTDSIQGDTSFFNVLGRLGAEVHWAPNSVIISGPERLNGDIEVDMGEISDTFMTLAAIAPLADGPITITNIGHARLKESDRISAMETNLRTLGVQTDVGHDWMRIYPSTPHGGRVNCHRDHRIAMAFSILGLRVDGITLDDPQCVGKTFPGFFDYLGRLFPEKALTLPG |  |  | retained glyphosate resistance
